Measured values from patent publication US20020072115A1.

Molecular target: α6 integrin (mouse) (UniProt Q61739)
Test: cell-based or functional assay

UniProt Q61739, sequence (Q61739 24-1091): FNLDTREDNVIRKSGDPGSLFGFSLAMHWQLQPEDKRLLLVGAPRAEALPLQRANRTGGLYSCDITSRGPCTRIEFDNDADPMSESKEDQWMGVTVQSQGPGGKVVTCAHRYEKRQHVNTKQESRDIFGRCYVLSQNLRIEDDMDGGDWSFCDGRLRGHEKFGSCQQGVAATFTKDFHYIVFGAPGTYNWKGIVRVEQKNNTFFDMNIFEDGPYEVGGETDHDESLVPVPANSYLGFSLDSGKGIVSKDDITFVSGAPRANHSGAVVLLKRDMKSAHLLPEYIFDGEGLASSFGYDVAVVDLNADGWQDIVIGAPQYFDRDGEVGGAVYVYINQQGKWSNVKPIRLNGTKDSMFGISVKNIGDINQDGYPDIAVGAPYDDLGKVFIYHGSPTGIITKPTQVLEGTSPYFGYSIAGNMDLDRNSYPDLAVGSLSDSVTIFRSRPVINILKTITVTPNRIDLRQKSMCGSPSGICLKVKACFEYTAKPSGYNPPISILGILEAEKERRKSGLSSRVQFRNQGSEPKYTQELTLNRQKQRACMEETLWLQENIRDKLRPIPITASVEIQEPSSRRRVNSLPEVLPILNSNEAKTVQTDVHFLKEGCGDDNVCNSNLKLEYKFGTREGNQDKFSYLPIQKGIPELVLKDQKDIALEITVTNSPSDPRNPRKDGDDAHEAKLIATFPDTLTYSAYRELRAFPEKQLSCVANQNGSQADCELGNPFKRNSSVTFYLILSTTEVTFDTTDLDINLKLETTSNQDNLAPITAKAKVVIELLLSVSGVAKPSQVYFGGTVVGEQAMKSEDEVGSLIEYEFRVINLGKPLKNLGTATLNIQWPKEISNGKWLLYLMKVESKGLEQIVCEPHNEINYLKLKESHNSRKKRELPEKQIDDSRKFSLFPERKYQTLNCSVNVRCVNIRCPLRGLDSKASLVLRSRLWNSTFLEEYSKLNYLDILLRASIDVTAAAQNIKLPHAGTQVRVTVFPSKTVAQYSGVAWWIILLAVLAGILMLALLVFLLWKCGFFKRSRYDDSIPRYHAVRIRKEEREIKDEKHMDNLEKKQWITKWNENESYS

total cell number per well (13.5 dpc fetal mouse pancreas cells cultured with laminin-1) (cells per well): 7190 | β cell number per well (13.5 dpc fetal mouse pancreas cells cultured with laminin-1) (cells per well): 6890
Substance: Rat monoclonal antibody (clone NKI-GoH3, IgG2a)
